From patent publication US20120077731A1 (Ablynx, published 2012)

Tests used:
[1] = molecular target: T1, Human soluble IL-6R (human, UniProt P08887 20-358); experiment: Biacore T100
T1 construct: Soluble recombinant form; biotinylated in some assays; also called hIL-6R; human IL-6R
T1 sequence (looked up): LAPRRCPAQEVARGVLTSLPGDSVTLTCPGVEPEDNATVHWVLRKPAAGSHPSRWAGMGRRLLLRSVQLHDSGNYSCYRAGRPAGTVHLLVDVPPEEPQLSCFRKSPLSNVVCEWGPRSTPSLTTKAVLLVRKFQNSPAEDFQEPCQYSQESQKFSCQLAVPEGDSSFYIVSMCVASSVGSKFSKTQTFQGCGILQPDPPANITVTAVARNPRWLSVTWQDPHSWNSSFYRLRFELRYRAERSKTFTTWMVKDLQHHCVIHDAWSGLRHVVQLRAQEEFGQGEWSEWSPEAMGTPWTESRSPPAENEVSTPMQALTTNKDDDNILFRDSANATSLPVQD

[2] = molecular target: T2, Human membrane IL-6R on cells (human, UniProt P08887 20-468); experiment: cell-based or functional assay
T2 sequence (looked up): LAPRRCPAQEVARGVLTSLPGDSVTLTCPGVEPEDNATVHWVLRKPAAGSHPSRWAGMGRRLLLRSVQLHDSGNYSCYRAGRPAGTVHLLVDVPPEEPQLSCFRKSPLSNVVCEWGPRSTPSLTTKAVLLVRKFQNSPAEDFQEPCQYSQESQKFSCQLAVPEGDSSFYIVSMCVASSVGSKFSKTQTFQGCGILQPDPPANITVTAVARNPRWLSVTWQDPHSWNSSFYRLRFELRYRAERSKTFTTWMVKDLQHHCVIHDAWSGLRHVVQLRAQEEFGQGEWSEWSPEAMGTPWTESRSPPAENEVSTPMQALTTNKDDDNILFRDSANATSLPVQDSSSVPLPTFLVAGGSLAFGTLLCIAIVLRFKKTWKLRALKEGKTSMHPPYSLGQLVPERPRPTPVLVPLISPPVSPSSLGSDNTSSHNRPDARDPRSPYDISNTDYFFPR

[3] = molecular target: T2, Human membrane IL-6R on cells; experiment: cell-based or functional assay; remark: listed apart in the source
[4] = molecular target: T3, Human plasma sIL-6R (human, UniProt P08887 20-355, limits assumed); experiment: plasma potency ELISA, human plasma
T3 construct: also called plasma-derived human IL-6R
T3 sequence (looked up): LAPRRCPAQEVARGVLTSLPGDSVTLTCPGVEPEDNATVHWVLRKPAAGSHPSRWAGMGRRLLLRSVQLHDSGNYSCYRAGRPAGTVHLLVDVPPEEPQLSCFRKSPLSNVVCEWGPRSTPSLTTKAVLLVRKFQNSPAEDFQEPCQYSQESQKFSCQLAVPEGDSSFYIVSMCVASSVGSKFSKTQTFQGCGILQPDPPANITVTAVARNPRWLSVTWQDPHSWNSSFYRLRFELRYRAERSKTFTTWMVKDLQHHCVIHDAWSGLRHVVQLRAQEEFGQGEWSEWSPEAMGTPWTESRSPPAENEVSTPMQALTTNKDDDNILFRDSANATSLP

[5] = molecular target: T1, Human soluble IL-6R; experiment: Biacore T100, IL-6R covalently coupled
[6] = molecular target: T4, IL12-p40 (UniProt P29460 23-328); experiment: competitive binding ELISA, similar setup (results not shown)
T4 sequence (looked up): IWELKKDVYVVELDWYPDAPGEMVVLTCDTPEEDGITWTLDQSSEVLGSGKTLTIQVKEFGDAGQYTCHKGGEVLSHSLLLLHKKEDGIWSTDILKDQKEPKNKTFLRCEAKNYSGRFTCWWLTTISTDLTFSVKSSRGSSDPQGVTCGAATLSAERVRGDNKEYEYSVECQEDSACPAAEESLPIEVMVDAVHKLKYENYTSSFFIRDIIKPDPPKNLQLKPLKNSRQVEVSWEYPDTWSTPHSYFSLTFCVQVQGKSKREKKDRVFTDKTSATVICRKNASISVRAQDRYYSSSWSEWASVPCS

[7] = molecular target: T5, gp130/Fc (UniProt P40189 23-619); experiment: as above
T5 construct: not shown: Fc part, not described
T5 sequence (looked up): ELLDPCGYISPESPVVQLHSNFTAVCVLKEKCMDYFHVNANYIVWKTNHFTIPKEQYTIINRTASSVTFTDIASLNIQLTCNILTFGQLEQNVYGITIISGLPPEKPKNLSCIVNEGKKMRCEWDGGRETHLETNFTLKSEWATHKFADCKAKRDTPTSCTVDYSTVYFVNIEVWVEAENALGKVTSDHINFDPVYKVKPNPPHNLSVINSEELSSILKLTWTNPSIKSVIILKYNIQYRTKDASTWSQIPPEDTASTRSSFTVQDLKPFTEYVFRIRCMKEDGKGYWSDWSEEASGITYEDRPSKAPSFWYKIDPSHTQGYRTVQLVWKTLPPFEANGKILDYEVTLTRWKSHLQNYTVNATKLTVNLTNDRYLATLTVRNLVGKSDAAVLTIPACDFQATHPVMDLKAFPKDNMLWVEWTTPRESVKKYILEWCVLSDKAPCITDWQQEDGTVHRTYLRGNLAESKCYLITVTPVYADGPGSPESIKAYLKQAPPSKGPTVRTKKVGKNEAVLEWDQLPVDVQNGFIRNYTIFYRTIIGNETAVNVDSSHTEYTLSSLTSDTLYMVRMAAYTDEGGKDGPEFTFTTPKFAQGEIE

[8] = molecular target: T1, Human soluble IL-6R; experiment: ELISA, IL6R20A11 on biotinylated human sIL-6R on neutravidin plate
[9] = molecular target: T3, Human plasma sIL-6R; experiment: plasma potency assay, human plasma, 42 nM IL6; blocked ligand IL-6

B1: PMP20A11 (VHH)
VHH: EVQLVESGGGLVQPGGSLRLSCAASGSVFKINVMAWYRQAPGKGRELVAGIISGGSTSYADSVKGRFTISRDNAKNTLYLQMNSLRPEDTAVYYCAFITTESDYDLGRRYWGQGTLVTVSS
notes: also called IL6R20A11; IL6R300; not shown: c-myc and (His)6 tags
Kd [1]: 0.019 nM | IC50 (nM), TF-1 proliferation at 100 IU/mL IL-6 [2]: 0.283 nM | IC50 (nM), TF-1 proliferation at 5000 IU/mL IL-6 [3]: 15.2 nM | Ratio (high/low) of IC50 [4]: 1.8 | koff [5]: 1.9e-05 s⁻¹ | binding result [6]: no binding (tested: 100 nM) | binding result [7]: no binding (tested: 100 nM) | EC50 [8]: 0.35 nM | IC50 (read off the curve) [9]: ~0.4 nM
